T1: TNFR1 (Homo sapiens, UniProt P19438)
T1 chain: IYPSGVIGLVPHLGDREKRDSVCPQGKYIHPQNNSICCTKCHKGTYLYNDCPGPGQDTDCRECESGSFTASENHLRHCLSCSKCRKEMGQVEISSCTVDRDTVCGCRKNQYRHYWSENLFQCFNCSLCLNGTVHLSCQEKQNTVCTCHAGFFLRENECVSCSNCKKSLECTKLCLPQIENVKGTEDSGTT


Target: T1, TNFR1
Assay: yeast display SC50

Row | apparent Kd (screen) [nM] | Binder
1 | 7.07 | T97P (designed binder) SMEEEVEKAAKEYEKKKKEAIEKHLEKLKAKDKEAAERFLKELEEAAKEYAKDEAKTMSEEEAKRRAKKYKEKVLLSELSEEEQKEIKEAEEKLVRPILKYVEEAAK
2 | 12.5 | E92K (designed binder) SMEEEVEKAAKEYEKKKKEAIEKHLEKLKAKDKEAAERFLKELEEAAKEYAKDEAKTMSEEEAKRRAKKYKEKVLLSELSEEEQKEIKEAEKKLVRTILKYVEEAAK
3 | 0.593 | K64E (designed binder) SMEEEVEKAAKEYEKKKKEAIEKHLEKLKAKDKEAAERFLKELEEAAKEYAKDEAKTMSEEEAERRAKKYKEKVLLSELSEEEQKEIKEAEEKLVRTILKYVEEAAK
4 | 0.446 | V102T (designed binder) SMEEEVEKAAKEYEKKKKEAIEKHLEKLKAKDKEAAERFLKELEEAAKEYAKDEAKTMSEEEAKRRAKKYKEKVLLSELSEEEQKEIKEAEEKLVRTILKYTEEAAK
5 | 3 | E78G (designed binder) SMEEEVEKAAKEYEKKKKEAIEKHLEKLKAKDKEAAERFLKELEEAAKEYAKDEAKTMSEEEAKRRAKKYKEKVLLSGLSEEEQKEIKEAEEKLVRTILKYVEEAAK
6 | 2.73 | L75E (designed binder) SMEEEVEKAAKEYEKKKKEAIEKHLEKLKAKDKEAAERFLKELEEAAKEYAKDEAKTMSEEEAKRRAKKYKEKVELSELSEEEQKEIKEAEEKLVRTILKYVEEAAK
7 | 7.78 | A67V (designed binder) SMEEEVEKAAKEYEKKKKEAIEKHLEKLKAKDKEAAERFLKELEEAAKEYAKDEAKTMSEEEAKRRVKKYKEKVLLSELSEEEQKEIKEAEEKLVRTILKYVEEAAK
8 | 2.73 | K64P (designed binder) SMEEEVEKAAKEYEKKKKEAIEKHLEKLKAKDKEAAERFLKELEEAAKEYAKDEAKTMSEEEAPRRAKKYKEKVLLSELSEEEQKEIKEAEEKLVRTILKYVEEAAK
9 | 20.2 | A67T (designed binder) SMEEEVEKAAKEYEKKKKEAIEKHLEKLKAKDKEAAERFLKELEEAAKEYAKDEAKTMSEEEAKRRTKKYKEKVLLSELSEEEQKEIKEAEEKLVRTILKYVEEAAK
10 | 3 | L99M (designed binder) SMEEEVEKAAKEYEKKKKEAIEKHLEKLKAKDKEAAERFLKELEEAAKEYAKDEAKTMSEEEAKRRAKKYKEKVLLSELSEEEQKEIKEAEEKLVRTIMKYVEEAAK
11 | 0.956 | E104D (designed binder) SMEEEVEKAAKEYEKKKKEAIEKHLEKLKAKDKEAAERFLKELEEAAKEYAKDEAKTMSEEEAKRRAKKYKEKVLLSELSEEEQKEIKEAEEKLVRTILKYVEDAAK
12 | 3.63 | Q84D (designed binder) SMEEEVEKAAKEYEKKKKEAIEKHLEKLKAKDKEAAERFLKELEEAAKEYAKDEAKTMSEEEAKRRAKKYKEKVLLSELSEEEDKEIKEAEEKLVRTILKYVEEAAK
13 | 12.5 | I87Y (designed binder) SMEEEVEKAAKEYEKKKKEAIEKHLEKLKAKDKEAAERFLKELEEAAKEYAKDEAKTMSEEEAKRRAKKYKEKVLLSELSEEEQKEYKEAEEKLVRTILKYVEEAAK
14 | 1.27 | K68D (designed binder) SMEEEVEKAAKEYEKKKKEAIEKHLEKLKAKDKEAAERFLKELEEAAKEYAKDEAKTMSEEEAKRRADKYKEKVLLSELSEEEQKEIKEAEEKLVRTILKYVEEAAK

The remaining lines, values behind:

Row | Binder | apparent Kd (screen) [nM]
15 | M58H (designed binder) SMEEEVEKAAKEYEKKKKEAIEKHLEKLKAKDKEAAERFLKELEEAAKEYAKDEAKTHSEEEAKRRAKKYKEKVLLSELSEEEQKEIKEAEEKLVRTILKYVEEAAK | 7.78
16 | K56L (designed binder) SMEEEVEKAAKEYEKKKKEAIEKHLEKLKAKDKEAAERFLKELEEAAKEYAKDEALTMSEEEAKRRAKKYKEKVLLSELSEEEQKEIKEAEEKLVRTILKYVEEAAK | 1.05
17 | K17V (designed binder) SMEEEVEKAAKEYEKKVKEAIEKHLEKLKAKDKEAAERFLKELEEAAKEYAKDEAKTMSEEEAKRRAKKYKEKVLLSELSEEEQKEIKEAEEKLVRTILKYVEEAAK | 0.539
18 | E3F (designed binder) SMFEEVEKAAKEYEKKKKEAIEKHLEKLKAKDKEAAERFLKELEEAAKEYAKDEAKTMSEEEAKRRAKKYKEKVLLSELSEEEQKEIKEAEEKLVRTILKYVEEAAK | 20.2
19 | E37I (designed binder) SMEEEVEKAAKEYEKKKKEAIEKHLEKLKAKDKEAAIRFLKELEEAAKEYAKDEAKTMSEEEAKRRAKKYKEKVLLSELSEEEQKEIKEAEEKLVRTILKYVEEAAK | 0.956
20 | A55C (designed binder) SMEEEVEKAAKEYEKKKKEAIEKHLEKLKAKDKEAAERFLKELEEAAKEYAKDECKTMSEEEAKRRAKKYKEKVLLSELSEEEQKEIKEAEEKLVRTILKYVEEAAK | 11.4
21 | A55K (designed binder) SMEEEVEKAAKEYEKKKKEAIEKHLEKLKAKDKEAAERFLKELEEAAKEYAKDEKKTMSEEEAKRRAKKYKEKVLLSELSEEEQKEIKEAEEKLVRTILKYVEEAAK | 6.43
22 | E44F (designed binder) SMEEEVEKAAKEYEKKKKEAIEKHLEKLKAKDKEAAERFLKELFEAAKEYAKDEAKTMSEEEAKRRAKKYKEKVLLSELSEEEQKEIKEAEEKLVRTILKYVEEAAK | 1.69
23 | Y13I (designed binder) SMEEEVEKAAKEIEKKKKEAIEKHLEKLKAKDKEAAERFLKELEEAAKEYAKDEAKTMSEEEAKRRAKKYKEKVLLSELSEEEQKEIKEAEEKLVRTILKYVEEAAK | 11.4
24 | E49A (designed binder) SMEEEVEKAAKEYEKKKKEAIEKHLEKLKAKDKEAAERFLKELEEAAKAYAKDEAKTMSEEEAKRRAKKYKEKVLLSELSEEEQKEIKEAEEKLVRTILKYVEEAAK | 2.73
25 | E4Y (designed binder) SMEYEVEKAAKEYEKKKKEAIEKHLEKLKAKDKEAAERFLKELEEAAKEYAKDEAKTMSEEEAKRRAKKYKEKVLLSELSEEEQKEIKEAEEKLVRTILKYVEEAAK | 1.16
26 | K27E (designed binder) SMEEEVEKAAKEYEKKKKEAIEKHLEELKAKDKEAAERFLKELEEAAKEYAKDEAKTMSEEEAKRRAKKYKEKVLLSELSEEEQKEIKEAEEKLVRTILKYVEEAAK | 0.956
27 | E34Q (designed binder) SMEEEVEKAAKEYEKKKKEAIEKHLEKLKAKDKQAAERFLKELEEAAKEYAKDEAKTMSEEEAKRRAKKYKEKVLLSELSEEEQKEIKEAEEKLVRTILKYVEEAAK | 0.446
28 | A36L (designed binder) SMEEEVEKAAKEYEKKKKEAIEKHLEKLKAKDKEALERFLKELEEAAKEYAKDEAKTMSEEEAKRRAKKYKEKVLLSELSEEEQKEIKEAEEKLVRTILKYVEEAAK | 1.05
29 | K11G (designed binder) SMEEEVEKAAGEYEKKKKEAIEKHLEKLKAKDKEAAERFLKELEEAAKEYAKDEAKTMSEEEAKRRAKKYKEKVLLSELSEEEQKEIKEAEEKLVRTILKYVEEAAK | 0.446
30 | F39E (designed binder) SMEEEVEKAAKEYEKKKKEAIEKHLEKLKAKDKEAAERELKELEEAAKEYAKDEAKTMSEEEAKRRAKKYKEKVLLSELSEEEQKEIKEAEEKLVRTILKYVEEAAK | 4.83
31 | A20C (designed binder) SMEEEVEKAAKEYEKKKKECIEKHLEKLKAKDKEAAERFLKELEEAAKEYAKDEAKTMSEEEAKRRAKKYKEKVLLSELSEEEQKEIKEAEEKLVRTILKYVEEAAK | 0.718
32 | K16F (designed binder) SMEEEVEKAAKEYEKFKKEAIEKHLEKLKAKDKEAAERFLKELEEAAKEYAKDEAKTMSEEEAKRRAKKYKEKVLLSELSEEEQKEIKEAEEKLVRTILKYVEEAAK | 0.446
33 | K48Q (designed binder) SMEEEVEKAAKEYEKKKKEAIEKHLEKLKAKDKEAAERFLKELEEAAQEYAKDEAKTMSEEEAKRRAKKYKEKVLLSELSEEEQKEIKEAEEKLVRTILKYVEEAAK | 0.446
34 | L40I (designed binder) SMEEEVEKAAKEYEKKKKEAIEKHLEKLKAKDKEAAERFIKELEEAAKEYAKDEAKTMSEEEAKRRAKKYKEKVLLSELSEEEQKEIKEAEEKLVRTILKYVEEAAK | 0.79
35 | L43C (designed binder) SMEEEVEKAAKEYEKKKKEAIEKHLEKLKAKDKEAAERFLKECEEAAKEYAKDEAKTMSEEEAKRRAKKYKEKVLLSELSEEEQKEIKEAEEKLVRTILKYVEEAAK | 0.49

Reference: article PMC12416549 (2024)
